According to EP4810611A2:
Where a chain is given by its changes, count along the chain named. One block for each binder: values may come before it.

Legend:
TRBV9+TRAV38 antigen [1] = experiment: BLI (OctetRed 96), antigen on AR2G sensors, antibody 126-2 nM, 1:1 model; run 1
TRBV9+TRAV26 antigen [2] = experiment: as above
TRBV9+TRAV38 antigen [3] = experiment: BLI (OctetRed 96), antigen on AR2G sensors, antibody 126-2 nM, 1:1 model; run 3
TRBV9+TRAV26 antigen [4] = experiment: as above
TRBV9+TRAV38 antigen [5] = experiment: BLI (OctetRed 96), antigen on AR2G sensors, antibody 126-2 nM, 1:1 model; run 2
TRBV9+TRAV26 antigen [6] = experiment: as above
[7] = molecular target: human T cell receptor with a beta-chain of the TRBV9 family, on T lymphocytes of the mononuclear fraction of human blood (human); experiment: flow cytometry, FITC-labelled antibody on human blood mononuclear cells, 5 and 0.5 ng/µl
Chain of human T cell receptor with a beta-chain of the TRBV9 family, on T lymphocytes of the mononuclear fraction of human blood (human) (A0A0B4J1U6 22-114): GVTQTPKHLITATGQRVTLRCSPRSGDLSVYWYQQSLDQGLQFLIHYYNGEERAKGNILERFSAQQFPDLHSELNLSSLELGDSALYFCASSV

B1: anti-TRBV9-1 monoclonal antibody (antibody, human IgG1, kappa, V domains shown)
VH: QIQLVQSGPELREPGESVKLSCKASGYTFTDYLVHWVKQAPGKGLKWMGWINTYTGTPTYADDFEGRFVFSLEASASTANLQISNLKNEDTATYFCARSWRRGLRGLGFDYWGQGVFVTVSS
VL: DVQMTQSPYNLAASPGESVSINCKASKSINKYLAWYQQKPGKPNKLLIYDGSTLQSGIPSRFSGSGSGTDFTLTIRGLEPEDFGLYYCQQHNEYPPTFGAGTKLELKR
Kd (TRBV9+TRAV38 antigen [1]): 0.414 nM
koff (TRBV9+TRAV38 antigen [1]): 0.000183 s⁻¹
kon (TRBV9+TRAV38 antigen [1]): 441000 M⁻¹ s⁻¹
Kd (TRBV9+TRAV26 antigen [2]): 0.22 nM
koff (TRBV9+TRAV26 antigen [2]): 0.000113 s⁻¹
kon (TRBV9+TRAV26 antigen [2]): 515000 M⁻¹ s⁻¹
Kd (TRBV9+TRAV38 antigen [3]): 0.529 nM
koff (TRBV9+TRAV38 antigen [3]): 0.000196 s⁻¹
kon (TRBV9+TRAV38 antigen [3]): 371000 M⁻¹ s⁻¹
Kd (TRBV9+TRAV26 antigen [4]): 0.204 nM
koff (TRBV9+TRAV26 antigen [4]): 0.000114 s⁻¹
kon (TRBV9+TRAV26 antigen [4]): 559000 M⁻¹ s⁻¹
Kd (TRBV9+TRAV38 antigen [5]): 0.365 nM
koff (TRBV9+TRAV38 antigen [5]): 0.000205 s⁻¹
kon (TRBV9+TRAV38 antigen [5]): 562000 M⁻¹ s⁻¹
Kd (TRBV9+TRAV26 antigen [6]): 0.278 nM
koff (TRBV9+TRAV26 antigen [6]): 0.000183 s⁻¹
kon (TRBV9+TRAV26 antigen [6]): 658000 M⁻¹ s⁻¹

B3: anti-TRBV9-3 monoclonal antibody (antibody, human IgG1, kappa, V domains shown)
VH: B1 VH with L104I
VL: B1 VL
Kd (TRBV9+TRAV38 antigen [1]): 0.311 nM
koff (TRBV9+TRAV38 antigen [1]): 9.61e-05 s⁻¹
kon (TRBV9+TRAV38 antigen [1]): 309000 M⁻¹ s⁻¹
Kd (TRBV9+TRAV26 antigen [2]): 0.319 nM
koff (TRBV9+TRAV26 antigen [2]): 9.16e-05 s⁻¹
kon (TRBV9+TRAV26 antigen [2]): 287000 M⁻¹ s⁻¹
Kd (TRBV9+TRAV38 antigen [5]): 0.4 nM
koff (TRBV9+TRAV38 antigen [5]): 9.16e-05 s⁻¹
kon (TRBV9+TRAV38 antigen [5]): 229000 M⁻¹ s⁻¹
Kd (TRBV9+TRAV26 antigen [6]): 0.582 nM
koff (TRBV9+TRAV26 antigen [6]): 9.8e-05 s⁻¹
kon (TRBV9+TRAV26 antigen [6]): 168000 M⁻¹ s⁻¹

These reach a lower Kd (TRBV9+TRAV38 antigen [1]). Values come first.

Kd (TRBV9+TRAV38 antigen [1]): < 0.001 nM
koff (TRBV9+TRAV38 antigen [1]): < 1e-07 s⁻¹
kon (TRBV9+TRAV38 antigen [1]): 397000 M⁻¹ s⁻¹
Kd (TRBV9+TRAV26 antigen [2]): 0.0135 nM
koff (TRBV9+TRAV26 antigen [2]): 6.02e-06 s⁻¹
kon (TRBV9+TRAV26 antigen [2]): 447000 M⁻¹ s⁻¹
staining, share of the CD3-positive fraction [7]: 2.9%
Kd (TRBV9+TRAV38 antigen [5]): < 0.001 nM
koff (TRBV9+TRAV38 antigen [5]): < 1e-07 s⁻¹
kon (TRBV9+TRAV38 antigen [5]): 289000 M⁻¹ s⁻¹
Kd (TRBV9+TRAV26 antigen [6]): < 0.001 nM
koff (TRBV9+TRAV26 antigen [6]): < 1e-07 s⁻¹
kon (TRBV9+TRAV26 antigen [6]): 381000 M⁻¹ s⁻¹
B2: anti-TRBV9-2 monoclonal antibody (antibody, human IgG1, kappa, V domains shown)
VH: B1 VH with L107I
VL: B1 VL

Kd (TRBV9+TRAV38 antigen [1]): < 0.001 nM
koff (TRBV9+TRAV38 antigen [1]): < 1e-07 s⁻¹
kon (TRBV9+TRAV38 antigen [1]): 713000 M⁻¹ s⁻¹
Kd (TRBV9+TRAV26 antigen [2]): < 0.001 nM
koff (TRBV9+TRAV26 antigen [2]): < 1e-07 s⁻¹
kon (TRBV9+TRAV26 antigen [2]): 865000 M⁻¹ s⁻¹
Kd (TRBV9+TRAV38 antigen [5]): < 0.001 nM
koff (TRBV9+TRAV38 antigen [5]): < 1e-07 s⁻¹
kon (TRBV9+TRAV38 antigen [5]): 476000 M⁻¹ s⁻¹
Kd (TRBV9+TRAV26 antigen [6]): < 0.001 nM
koff (TRBV9+TRAV26 antigen [6]): < 1e-07 s⁻¹
kon (TRBV9+TRAV26 antigen [6]): 579000 M⁻¹ s⁻¹
B4: anti-TRBV9-4 monoclonal antibody (antibody, human IgG1, kappa, V domains shown)
VH: B1 VH with L104I, L107I
VL: B1 VL
